Experimental findings from PMC2754381 are described below.

Substrate in data set [1]: O=C(O)c1cc(=O)[nH]c(=O)n1[C@@H]1O[C@H](COP(=O)(O)O)[C@@H](O)[C@H]1O
Kind of data set: purified protein. It counts as biochemical, Methanothermobacter thermautotrophicus. The settings on record: 25 °C, pH 7.1, 10 mM MOPS, I = 0.1 (NaCl).

Substrate in data set [2]: O=C(O)c1cc(=O)[nH]c(=O)n1[C@@H]1O[C@H](COP(=O)(O)O)[C@@H](O)[C@H]1O
The data set is described as follows: purified protein. The class given is biochemical, Saccharomyces cerevisiae. The settings on record: 25 °C, pH 7.1, 10 mM MOPS, I = 0.1 (NaCl).

B1: MtOMPDC (wildtype OMPDC from Methanothermobacter thermautotrophicus) (Methanothermobacter thermautotrophicus str. Delta H) (protein)
chain: MRSRRVDVMDVMNRLILAMDLMNRDDALRVTGEVREYIDTVKIGYPLVLSEGMDIIAEFRKRFGCRIIADFKVADIPETNEKICRATFKAGADAIIVHGFRGADSVRACLNVAEEMGREVFLLTEMSHPGAEMFIQGAADEIARMGVDLGVKNYVGPSTRPERLSRLREIIGQDSFLISPGVGAQGGDPGETLRFADAIIVGRSIYLADNPAAAAAGIIESIKDLLNP
The Km is the substrate concentration at which the rate is half of its maximum. Usually kcat stands for the number of substrate molecules converted per active site and unit of time at saturation. Usually kcat/Km stands for the turnover number divided by the Michaelis constant. Take B1: in data set [1], the Km amounted to 1.5 ± 0.2 µM, the kcat came to 4.7 ± 0.3 s⁻¹ and the kcat/Km was found to be 3.1e+06 ± 300000 M⁻¹ s⁻¹.

B2: ScOMPDC (C155S mutant OMPDC from Saccharomyces cerevisiae) (Saccharomyces cerevisiae S288C; C155S) (protein)
chain: MSKATYKERAATHPSPVAAKLFNIMHEKQTNLCASLDVRTTKELLELVEALGPKICLLKTHVDILTDFSMEGTVKPLKALSAKYNFLLFEDRKFADIGNTVKLQYSAGVYRIAEWADITNAHGVVGPGIVSGLKQAAEEVTKEPRGLLMLAELSSKGSLATGEYTKGTVDIAKSDKDFVIGFIAQRDMGGRDEGYDWLIMTPGVGLDDKGDALGQQYRTVDDVVSTGSDIIIVGRGLFAKGRDAKVEGERYRKAGWEAYLRRCGQQN
Regarding B2, in data set [2], the Michaelis-Menten constant (Km) was found to be 1.4 ± 0.2 µM, the kcat was found to be 15 ± 1 s⁻¹ and the kcat/Km stood at 1.1e+07 ± 1e+06 M⁻¹ s⁻¹.
